The values below are quoted from earlier work in patent US20070166367A1, “Adept or gdept producing acetaldehyde” (priority 2004, published 2007).

Read-outs that look alike come from different tables or passages of the source.

B1: Human B2: human alcohol dehydrogenase β2, atypical liver class I enzyme, B2B2 homodimer (protein, UniProt P00325 2-375, looked up)
All-trans-retinol …: STAGKVIKCKAAVLWEVKKPFSIEDVEVAPPKAYEVRIKMVAVGICHTDDHVVSGNLVTPLPVILGHEAAGIVESVGEGVTTVKPGDKVIPLFTPQCGKCRVCKNPESNYCLKNDLGNPRGTLQDGTRRFTCRGKPIHHFLGTSTFSQYTVVDENAVAKIDAASPLEKVCLIGCGFSTGYGSAVNVAKVTPGSTCAVFGLGGVGLSAVMGCKAAGAARIIAVDINKDKFAKAKELGATECINPQDYKKPIQEVLKEMTDGGVDFSFEVIGRLDTMMASLLCCHEACGTSVIVGVPPASQNLSINPMLLLTGRTWKGAVYGGFKSKEGIPKLVADFMAKKFSLDALITHVLPFEKINEGFDLLHSGKSIRTVLTF
modifications: beta2 allele homodimer
For orientation: Km means the concentration of substrate that gives half-maximal velocity. For B1, under “'physiological' ethanol concentrations”, the “enzymatic rate relative to the usual human ADH enzymes” value is listed as “at least 16 fold”. Further, the Km (for ethanol) was 940 µM. Further, the “Vmax relative to the usual human alpha, beta and gamma variants” value (pH 7.5) is “(Note at pH 7.5 the Vmax of beta 2 is 5-40 times higher that the usual human alpha, beta and gamma variants)”.

B2: Human B1: usual human alcohol dehydrogenase B1 isoenzyme (protein, UniProt P00325 2-375, looked up)
All-trans-retinol …: STAGKVIKCKAAVLWEVKKPFSIEDVEVAPPKAYEVRIKMVAVGICHTDDHVVSGNLVTPLPVILGHEAAGIVESVGEGVTTVKPGDKVIPLFTPQCGKCRVCKNPESNYCLKNDLGNPRGTLQDGTRRFTCRGKPIHHFLGTSTFSQYTVVDENAVAKIDAASPLEKVCLIGCGFSTGYGSAVNVAKVTPGSTCAVFGLGGVGLSAVMGCKAAGAARIIAVDINKDKFAKAKELGATECINPQDYKKPIQEVLKEMTDGGVDFSFEVIGRLDTMMASLLCCHEACGTSVIVGVPPASQNLSINPMLLLTGRTWKGAVYGGFKSKEGIPKLVADFMAKKFSLDALITHVLPFEKINEGFDLLHSGKSIRTVLTF
On to B2, for which the Michaelis-Menten constant (Km) is 49 µM.

B3: Human class IV: human class IV alcohol dehydrogenase (protein, UniProt P40394 1-386, looked up)
All-trans-retinol …: MFAEIQIQDKDRMGTAGKVIKCKAAVLWEQKQPFSIEEIEVAPPKTKEVRIKILATGICRTDDHVIKGTMVSKFPVIVGHEATGIVESIGEGVTTVKPGDKVIPLFLPQCRECNACRNPDGNLCIRSDITGRGVLADGTTRFTCKGKPVHHFMNTSTFTEYTVVDESSVAKIDDAAPPEKVCLIGCGFSTGYGAAVKTGKVKPGSTCVVFGLGGVGLSVIMGCKSAGASRIIGIDLNKDKFEKAMAVGATECISPKDSTKPISEVLSEMTGNNVGYTFEVIGHLETMIDALASCHMNYGTSVVVGVPPSAKMLTYDPMLLFTGRTWKGCVFGGLKSRDDVPKLVTEFLAKKFDLDQLITHVLPFKKISEGFELLNSGQSIRTVLTF
Turning to B3, for the setting “for ethanol”, the Km is 37000 µM.
